B1: full-length StAR: full-length (1-285) steroidogenic acute regulatory protein (protein, UniProt P49675 1-285, looked up)
chain: MLLATFKLCAGSSYRHMRNMKGLRQQAVMAISQELNRRALGGPTPSTWINQVRRRSSLLGSRLEETLYSDQELAYLQQGEEAMQKALGILSNQEGWKKESQQDNGDKVMSKVVPDVGKVFRLEVVVDQPMERLYEELVERMEAMGEWNPNVKEIKVLQKIGKDTFITHELAAEAAGNLVGPRDFVSVRCAKRRGSTCVLAGMATDFGNMPEQKGVIRAEHGPTCMVLHPLAGSPSKTKLTWLLSIDLKGWLPKSIINQVLSQTQVDFANHLRKRLESHPASEARC
modifications: full-length
notes: full-length (1-285) steroidogenic acute regulatory protein

Experiments:
COS-1 cells = test: Pregnenolone production of COS-1 cells co-transfected with F2 (cholesterol side-chain cleavage fusion) and StAR constructs; type: cell-based, monkey; details: for increase in steroidogenesis over the StAR-independent level seen with F2 alone: accumulated pregnenolone after 48 h; for steroidogenic activity (in words): pregnenolone in medium
Method: COS-1 cells were grown, transfected and assayed for pregnenolone production as Described (Stocco, D. M. & Clark, B. J. Regulation of the acute production of steroids in steroidogenic cells. Endocr. Rev. 17, 221-244 (1996)), (Bose, H. S., et al. N-218 MLN64, a protein with StAR-like steroidogenic activity is folded and cleaved similarly to StAR. Biochemistry 39, 11722-11731 (2000)). Three independent transfections, each performed in triplicate, were done for each construct.
To determine the location of biological activity of the mitochondrial protein StAR, wild-type and StAR proteins with an N-terminal deletion and StAR proteins fused to a protein that would function to immobilize the StAR protein in one of the four mitochondrial compartments were evaluated for their ability to catalyze steroidogenesis. Nonsteroidogenic COS-I monkey kidney cells were grown, transfected and assayed for pregnenolone production as described (Stocco, D. M. and Clark, B. J., Endocr Rev 17, 221-244 (1996); Bose, H. S., et al., Biochemistry 39, 11722-11731 (2000)). Three independent transfections, each performed in triplicate, were done for each construct. The cells were transfected with a vector expressing full length StAR or a vector expressing N-62 StAR, Tom-StAR, StAR-Tom, Tim44-StAR, or Tim9-StAR. Tom20, Tim9 and Tim44 cDNAs were prepared from human adrenal RNA by RT-PCR. N-62 StAR cDNA including an enterokinase linker fused to 63-285 StAR was derived from a bacterial expression vector (see Artemenko, et al., J. Biol. Chem. 276: 46583-46596 (2001). Tom/StAR is Tom20 fused to 63-285 through GSDDDDK, which contains Bam HI and enterokinase sites (Bam/EK linker). StAR/Tom is 1-285 StAR fused to Tom20 through Eco RI/EK linker (GFDDDDK). Tim9/StAR contains the 25 amino acid mitochondrial leader of cytochrome c oxidase subunit IV (Bose et al, Biochemistry, 37: 9768-9775 (1998)) fused to Tim9 linked to N-30 StAR through the Bam/EK linker. Tim44/StAR is Tim44 fused to 63-285 StAR through the Bam/EK linker. Tom20 has 50 amino-terminal residues embedded in the OMM and 95 residues in the cytoplasm (Abe, Y., et al., Cell 100, 551-560 (2000)). Expression of Tom20 with N-62 StAR fused to its carboxy-terminus (Tom/StAR) affixed StAR to the cytoplasmic side of the OMM. Expression of Tim9, which is normally confined to the IMS (Bauer et al, J. Inher. Metab. Dis. 24: 166-180 (2001)), fused to N-30 StAR (Tim9/StAR) localized StAR to the IMS. Expression of Tim44, which lies on the matrix side of the IMM, fused to N-62 StAR (Tim44/StAR), targeted StAR to the matrix. […]

MA-10 mitochondria = test: Steroidogenic activity (pregnenolone) of isolated MA-10 mitochondria incubated with StAR constructs from cell-free transcription/translation; type: biochemical, mouse
Method: (§1) StAR constructs were bioassayed (Bose, H. S., et al. N-218 MLN64, a protein with StAR-like steroidogenic activity is folded and cleaved similarly to StAR. Biochemistry 39, 11722-11731 (2000)) with MA-10 mitochondria. Linked transcription/translation system was added directly to the mitochondria except when Tim9/StAR was immunoprecipitated with anti-StAR antiserum (Bose, H. S., et al. The active form of the steroidogenic acute regulatory protein, StAR, appears to be a molten globule. Proc. Natl Acad. Sci. USA 96, 7250-7255 (1999)), collected with protein A-sepharose CL-4B (Pharmacia), washed, dissociated from the sepharose-antibody complex at pH 3.0, neutralized and added directly to mitochondria. Immunoassays of pregnenolone were performed after incubation at 378 C. for 1 h; immunoblotting was performed as described (Bose, H. S., et al. N-218 MLN64, a protein with StAR-like steroidogenic activity is folded and cleaved similarly to StAR. Biochemistry 39, 11722-11731 (2000)).
as §1, with “al.,” for “al. N-218 MLN64, a protein with StAR-like steroidogenic activity is folded and cleaved similarly to StAR.”, “al., Proc” for “al. The active form of the steroidogenic acute regulatory protein, StAR, appears to be a molten globule. Proc.”, “Acad Sci” for “Acad. Sci.”, “harvested” for “collected”, “37°” for “378 C.”

MA-10 cell mitochondria = test: Mitochondrial import and cleavage kinetics of StAR constructs; type: biochemical, mouse; details: 26° C., phosphorimager quantitation of uncleaved and cleaved imported protein
Description: StAR constructs were cloned into the BglII/EcoRI site of pSP6, transcribed with SP6 RNA polymerase (Promega) and translated with [35S]methionine as described (Chuck, S. & Lingappa, V. Apolipoprotein B intermediates. Nature 356, 115-116 (1992)). Mitochondria, isolated from 5 £ 106 MA-10 or COS-1 cells by hypotonic shock and homogenization (Bose, H. S., et al. N-218 MLN64, a protein with StAR-like steroidogenic activity is folded and cleaved similarly to StAR. Biochemistry 39, 11722-11731 (2000)) were suspended in […] of 125 mM sucrose, 1 mM ATP, 1 mM NADH, 50 mM KCl, 0.05 mM ADP, 2 mM DTT, 5 mM Na-succinate, 2 mM Mg(OAc)2, 2 mM KH2PO4 and 10 mM HEPES buffer at pH 7.4. Mitochondria (50 ml) and 1 ml of the transcription/translationmix were incubated at 268 C. for various times; import was terminated with 1 ml 1 mM mCCCP (Calbiochem). Some mitochondria were extracted with fresh 100 mM Na2CO3, pH 11.5, for 15 min at 48 C. and spun at 15,000 g for 15 min at 48 C. to pellet membranes. Some membranes were incubated with 0.1% digitonin (Sigma) for 15 min at 48 C. and spun at 144,000 g for 1 h at 48 C. to pelletOMMfragments. […] Analysis was by SDS-polyacrylamide gel electrophoresis (SDS-PAGE) and phosphorimager quantification (Molecular Dynamics, Storm 860). […]

Row | Molecule | increase in steroidogenesis over the StAR-independent level seen with F2 alone (COS-1 cells) [fold] | increase in steroidogenesis (MA-10 mitochondria; MA-10 mitochondria incubated with cell-free transcription/translation system expressing the construct, versus control system) [fold] | activity of MA-10 cell mitochondria (in words) (MA-10 mitochondria; equal amounts of each protein added, 1 h) | steroidogenic activity of reconstituted mitochondria (in words) (MA-10 mitochondria; mitochondria reconstituted from OMM and mitoplast fractions) | import speed (ranking) (MA-10 cell mitochondria) | steroidogenic activity (in words) (COS-1 cells) | steroidogenic activity (in words) (COS-1 cells; listed as full-length (1-285) StAR)
1 | CC(C)CC[C@@H](O)[C@@H](C)[C@H]1CC[C@H]2[C@@H]3CC=C4C[C@@H](O)CC[C@]4(C)[C@H]3CC[C@]12C [22R-OH-cholesterol, 22R-hydroxycholesterol, reference compound] | ~20 | – | – | – | – | – | –
2 | B1 | 6 | ~6 | equally active | active | Scc/N-62 StAR>>Scc/N-30 StAR>full-length StAR | equivalent at all times measured after transfection | about half the maximal capacity of the cells

Source: patent US20060110730A1, “Methods and compositions for regulation and manipulation of steroidogenesis” (priority 2002, published 2006)
